The record followed here is patent publication US20180326084A1 (Genmab, published 2018).

Substitutions are numbered along the chain they refer to.

Assay [1] deals with T1, Homo sapiens AXL-Mus musculus Ig2 domain (p33-AXL-mIg2) (human-mouse chimera, UniProt P30530 26-894).
T1 construct: Expressed in HEK293F cells; also called hsAXL-mmIg2; TH1021-mIg2
T1 chain: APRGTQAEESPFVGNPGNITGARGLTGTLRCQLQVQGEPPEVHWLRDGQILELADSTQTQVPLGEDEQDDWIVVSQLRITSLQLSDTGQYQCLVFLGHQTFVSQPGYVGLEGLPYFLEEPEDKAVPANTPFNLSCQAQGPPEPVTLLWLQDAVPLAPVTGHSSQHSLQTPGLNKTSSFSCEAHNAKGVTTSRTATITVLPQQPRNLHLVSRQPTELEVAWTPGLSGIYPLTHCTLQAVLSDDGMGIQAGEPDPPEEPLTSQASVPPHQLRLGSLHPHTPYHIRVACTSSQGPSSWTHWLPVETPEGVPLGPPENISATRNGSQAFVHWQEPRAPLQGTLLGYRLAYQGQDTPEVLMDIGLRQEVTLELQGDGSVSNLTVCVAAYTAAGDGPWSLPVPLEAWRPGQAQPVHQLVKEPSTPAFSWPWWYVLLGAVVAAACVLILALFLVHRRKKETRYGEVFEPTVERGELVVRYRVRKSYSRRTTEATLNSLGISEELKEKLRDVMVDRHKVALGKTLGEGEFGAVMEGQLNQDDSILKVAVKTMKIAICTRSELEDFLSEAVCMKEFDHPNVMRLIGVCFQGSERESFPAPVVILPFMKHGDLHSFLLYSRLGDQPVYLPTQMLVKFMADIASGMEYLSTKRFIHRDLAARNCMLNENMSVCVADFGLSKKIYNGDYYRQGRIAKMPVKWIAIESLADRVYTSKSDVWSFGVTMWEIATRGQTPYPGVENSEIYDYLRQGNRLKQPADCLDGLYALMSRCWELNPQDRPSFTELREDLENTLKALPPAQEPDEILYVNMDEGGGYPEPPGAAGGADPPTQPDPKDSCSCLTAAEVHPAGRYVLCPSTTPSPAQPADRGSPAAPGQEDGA
The experiment in a line: flow cytometry, 1 µg/mL antibody, transfected HEK293F cells.

For assay [2], the target named is T2, human AXL (full length) (human, UniProt P30530 26-894).
T2 construct: also called TH1021-AXL; TH1021-hAXL
In words: flow cytometry, HEK293T cells transiently transfected with human AXL. A general note: In flow cytometry, cells or beads pass a laser one at a time.

The target of assay [3] is T3, Homo sapiens AXL-Mus musculus FN1 domain (p33-AXL-mFN1) (human-mouse chimera, UniProt P30530 26-894).
T3 construct: Expressed in HEK293F cells; also called hsAXL-mmFN1; TH1021-mFN1
T3 chain: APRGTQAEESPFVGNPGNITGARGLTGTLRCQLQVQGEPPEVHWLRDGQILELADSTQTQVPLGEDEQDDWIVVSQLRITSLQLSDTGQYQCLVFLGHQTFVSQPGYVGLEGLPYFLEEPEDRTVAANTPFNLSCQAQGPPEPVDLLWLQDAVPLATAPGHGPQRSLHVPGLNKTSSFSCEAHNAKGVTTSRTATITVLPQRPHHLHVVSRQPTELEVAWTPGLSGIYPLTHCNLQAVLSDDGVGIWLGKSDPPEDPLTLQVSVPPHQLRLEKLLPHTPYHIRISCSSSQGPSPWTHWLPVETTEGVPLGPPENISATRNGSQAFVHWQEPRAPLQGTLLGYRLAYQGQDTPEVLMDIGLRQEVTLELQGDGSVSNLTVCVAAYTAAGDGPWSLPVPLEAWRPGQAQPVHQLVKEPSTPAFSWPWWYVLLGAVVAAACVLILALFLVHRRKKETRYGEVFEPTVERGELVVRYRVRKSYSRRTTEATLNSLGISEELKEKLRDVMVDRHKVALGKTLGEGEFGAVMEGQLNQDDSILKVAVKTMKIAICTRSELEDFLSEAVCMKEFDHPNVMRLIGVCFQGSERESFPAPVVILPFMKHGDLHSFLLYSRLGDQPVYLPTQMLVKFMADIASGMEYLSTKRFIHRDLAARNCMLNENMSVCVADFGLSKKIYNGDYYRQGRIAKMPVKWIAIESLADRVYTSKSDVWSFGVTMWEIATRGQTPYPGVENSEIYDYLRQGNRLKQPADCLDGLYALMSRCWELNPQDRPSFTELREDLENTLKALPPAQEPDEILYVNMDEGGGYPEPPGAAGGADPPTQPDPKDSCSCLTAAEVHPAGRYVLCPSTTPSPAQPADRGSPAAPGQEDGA
The experiment in a line: flow cytometry, 1 µg/mL antibody, transfected HEK293F cells.

The target in assay [4] is T4, human AXL with a cynomolgus monkey extracellular domain (ECD) (cynomolgus monkey (Macaca …, UniProt P30530 26-894)).
T4 construct: Chimera on transfected HEK293T cells; also called cynomolgus AXL; cynomolgus AXL-ECD
T4 chain: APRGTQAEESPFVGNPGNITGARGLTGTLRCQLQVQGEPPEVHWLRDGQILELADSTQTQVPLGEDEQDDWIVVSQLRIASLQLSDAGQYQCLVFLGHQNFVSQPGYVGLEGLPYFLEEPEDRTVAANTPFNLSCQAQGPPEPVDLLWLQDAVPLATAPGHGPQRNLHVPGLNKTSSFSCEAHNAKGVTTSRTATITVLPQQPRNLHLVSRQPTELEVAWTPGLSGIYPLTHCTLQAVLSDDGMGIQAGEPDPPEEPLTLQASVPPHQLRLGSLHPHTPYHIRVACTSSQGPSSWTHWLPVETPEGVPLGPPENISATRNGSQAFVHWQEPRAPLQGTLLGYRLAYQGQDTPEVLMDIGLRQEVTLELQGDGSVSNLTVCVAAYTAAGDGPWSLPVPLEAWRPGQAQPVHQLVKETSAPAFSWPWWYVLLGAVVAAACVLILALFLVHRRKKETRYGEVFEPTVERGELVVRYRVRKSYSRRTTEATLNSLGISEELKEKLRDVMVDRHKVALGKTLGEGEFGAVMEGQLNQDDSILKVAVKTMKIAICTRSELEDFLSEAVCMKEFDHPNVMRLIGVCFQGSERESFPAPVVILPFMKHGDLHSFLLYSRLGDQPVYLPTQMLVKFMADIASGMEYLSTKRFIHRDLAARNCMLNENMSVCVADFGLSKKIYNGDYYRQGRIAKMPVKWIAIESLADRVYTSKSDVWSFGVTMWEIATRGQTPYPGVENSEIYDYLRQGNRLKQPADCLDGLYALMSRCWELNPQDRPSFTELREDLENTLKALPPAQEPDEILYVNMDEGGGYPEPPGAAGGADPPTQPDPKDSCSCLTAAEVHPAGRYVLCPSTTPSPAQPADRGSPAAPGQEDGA
In words: flow cytometry, HEK293T cells with human AXL carrying cynomolgus ECD.

The target of assay [5] is T2, human AXL (full length). The experiment in a line: FMAT screening assay, HEK-293F cells transiently expressing human AXL.

B1: IgG1-AXL-183 (antibody, V domains shown)
VH: QVQLQQWGAGLLKPSETLSLTCAVYGGSFSGYYWSWIRQPPGKGLEWIGEINQSGSTNYNPSLKSRVTISVDTSKNQFSLKLSSVTAADTSVYYCASGNWDHFFDYWGQGTLVTVSS
VL: DIQMTQSPSSVSASVGDRVTITCRASQGISSWLAWYQHKPGKAPKLLIYATSSLQSGVTSRFSGSGSGTDFTLTISSLQPEDFATYYCQQAKSFPWTFGQGTKVEIK
In the case of B1, the binding result in assay [1] and in assay [3] was “binds” in each case. Besides, the EC50 (read off the curve) (in general, the concentration needed to bring the measured effect to its halfway point) in assay [2] is roughly 0.1 µg/mL. Besides, the midpoint of the response in assay [4], the EC50, lay at 0.309 µg/mL.

B2: IgG1-AXL-148 (antibody, V domains shown)
VH: EVQLLESGGGLVQPGGSLRLSCAASGFTFSSYAMTWVRQAPGKGLEWVSAISISGGSTFYADSVKGRFTISRDNSKNTLYLQMNSLRAEDTAVYYCRGYSGYVYDAFDFWGQGTMVTVSS
VL: DIQMTQSPSSLSASVGDRVTITCRASQGISNWLAWYQQKPEKAPKSLIYAASSLQSGVPSRFSGSGSGTDFTLTISSLQPEDFATYYCQQYNSYPLTFGGGTKVEIK
For B2, the binding result in assay [3] is recorded as “binds”. In assay [4], the EC50 (as a rule, the concentration at which the effect is half-maximal) was determined as 0.152 µg/mL. In assay [5], a half-maximal effect (EC50) was put at 0.0036 µg/mL and the “Maximal binding (Arbitrary units)” value was found to be 3500 arbitrary units.

B3: IgG1-AXL-726 (antibody, V domains shown)
VH: QVQLQQWGAGLLKPSETLSLTCAIDGGSFSGYYWSWIRQPPGKGLEWIGEISHSGRTNYNPSLKSRVTISIDTSKNQFSLKLSSVAAADTAVYYCARFITMIRGAIITHFDYWGQGALVTVSS
VL: B2 VL with N31S, N92H, L96Y, G100Q, V104L
Turning to B3, the binding result in assay [1] and in assay [3] was “binds” throughout. In addition, the “EC50 (read off the curve)” value in assay [2] is roughly 0.09 µg/mL. In addition, the EC50 came out at 0.349 µg/mL in assay [4] and 0.0471 µg/mL in assay [5]. The “Maximal binding (Arbitrary units)” value in assay [5] is 3150 arbitrary units.

B4: IgG1-AXL-733 (antibody, V domains shown)
VH: QVQLVESGGGVVQPGRSLRLSCAASGFSFSTYAMHWVRQAPGKGLEWVAVISYDGDNKYSADSVKGRFTISRDNSKNTLYLQMNSLRAEDTAVYYCARGRKLGIDAFDIWGQGTMVTVSS
VL: AIQLTQSPSSLSASVGDRVTITCRASQGISSALAWYQQKPGKAPKLLIYDASSLESGVPSRFSGSGSGTDFTLTISGLQPEDFATYYCQQFNSYPFTFGPGTKVDIK
On to B4, for which the binding result in assay [1] was “binds”. Further, the EC50 in assay [4] is 0.254 µg/mL.
